# Experiments:
# Assay in all cases: cell-based or functional assay
# [1] = target: HIV Env of isolate Q23.17 (clade A) (HIV)
# [2] = target: HIV Env of isolate X1254_C3 (clade G) (HIV)
# [3] = target: HIV Env of isolate X1632_S2_B10 (clade G) (HIV)
# [4] = target: HIV Env of isolate BJOX009000.02.4 (clade AE) (HIV)
# [5] = target: HIV Env of isolate BJOX025000.01.1 (clade AE) (HIV)
# [6] = target: HIV Env of isolate BJOX028000.10.3 (clade AE) (HIV)
# [7] = target: HIV Env of isolate C1080.c03 (clade AE) (HIV)
# [8] = target: HIV Env of isolate R1166.c01 (clade AE) (HIV)
# [9] = target: HIV Env of isolate R2184.c04 (clade AE) (HIV)
# [10] = target: HIV Env of isolate T251-18 (clade AG) (HIV)
# [11] = target: HIV Env of isolate T255-34 (clade AG) (HIV)
# [12] = target: HIV Env of isolate T278-50 (clade AG) (HIV)
# [13] = target: HIV Env of isolate 1012_11_TC21_3257 (clade B) (HIV)
# [14] = target: HIV Env of isolate 1056_10_TA11_1826 (clade B) (HIV)
# [15] = target: HIV Env of isolate CNE58 (clade BC) (HIV)
# [16] = target: HIV Env of isolate 1394C9G1(Rev-) (clade C) (HIV)
# [17] = target: HIV Env of isolate BF1266.431a (clade C) (HIV)
# [18] = target: HIV Env of isolate CAP210.2.00.E8 (clade C) (HIV)
# [19] = target: HIV Env of isolate Ce1172_H1 (clade C) (HIV)
# [20] = target: HIV Env of isolate Du172.17 (clade C) (HIV)
# [21] = target: HIV Env of isolate 9004SS_A3_4 (clade A) (HIV)
# [22] = target: HIV Env of isolate HIV-001428-2.42 (clade C) (HIV)
# [23] = target: HIV Env of isolate HIV-16845-2.22 (clade C) (HIV)
Binder,IC50 (µg/ml) with constrains [1] [µg/mL],IC80 (µg/ml) with constrains [1] [µg/mL],IC50 (µg/ml) with constrains [2] [µg/mL],IC50 (µg/ml) with constrains [3] [µg/mL],IC50 (µg/ml) with constrains [4] [µg/mL],IC80 (µg/ml) with constrains [4] [µg/mL],IC50 (µg/ml) with constrains [5] [µg/mL],IC80 (µg/ml) with constrains [5] [µg/mL],IC50 (µg/ml) with constrains [6] [µg/mL],IC80 (µg/ml) with constrains [6] [µg/mL],IC50 (µg/ml) with constrains [7] [µg/mL],IC80 (µg/ml) with constrains [7] [µg/mL],IC50 (µg/ml) with constrains [8] [µg/mL],IC80 (µg/ml) with constrains [8] [µg/mL],IC50 (µg/ml) with constrains [9] [µg/mL],IC80 (µg/ml) with constrains [9] [µg/mL],IC50 (µg/ml) with constrains [10] [µg/mL],IC80 (µg/ml) with constrains [10] [µg/mL],IC50 (µg/ml) with constrains [11] [µg/mL],IC80 (µg/ml) with constrains [11] [µg/mL],other results
"ePGDM13 (antibody, V domains shown) VH: QAQLVQSGPEVRKPGTSVKVSCKNPGNTLTTYDLHWVRQVPGQGLQWMGWISHEGDKKVIVERFKAKVTIDWDRSTNTAYLQLSGLTSEDTAVYYCAKGSKHRLRDYALYDEDGALNWAVDVDYLANLEFWGQGTAVTVSS VL: DIVLTQSPLSLSVTPGESASISCKSSHSLQHGDRNNYLAWYVQKPGRSPQLLLDLASERASGVPDRFSGSGSEKDFTLKISRVETEDVGTYYCMQGRESPWTFGQGTKVDIK",0.001,0.004,0.518,0.003,0.265,1.06,0.018,0.071,0.035,0.139,0.001,0.003,0.194,0.777,0.005,0.019,> 100,> 100,0.007,0.029,IC50 (µg/ml) with constrains [12]: 1.6 µg/mL; IC50 (µg/ml) with constrains [13]: 0.065 µg/mL; IC50 (µg/ml) with constrains [14]: 1.51 µg/mL; IC50 (µg/ml) with constrains [15]: 0.003 µg/mL; IC50 (µg/ml) with constrains [16]: 0.003 µg/mL; IC50 (µg/ml) with constrains [17]: 0.004 µg/mL; IC50 (µg/ml) with constrains [18]: 0.135 µg/mL; IC50 (µg/ml) with constrains [19]: 0.061 µg/mL; IC50 (µg/ml) with constrains [20]: 1.5 µg/mL; IC50 (µg/ml) with constrains [21]: > 100 µg/mL; IC80 (µg/ml) with constrains [21]: > 100 µg/mL; IC50 (µg/ml) with constrains [22]: 0.003 µg/mL; IC50 (µg/ml) with constrains [23]: > 100 µg/mL
"ePGDM5 (antibody, V domains shown) VH: QAQLVQSGPEVRKPGTSVKVSCKNPGNTLTTYDLHWVRQVPGQGLQWMGWISHEGDKKVIVERFKAKVTIDWDRSTNTAYLQLSGLTSEDTAVYYCAKGSKHRLRDYALYDEDGALNWAVDVDYLANLEFWGQGTAVTVSS VL: DFVLTQSPLSLSVTPGESASISCKSDHSLQHGDRNNYLAWYVQKPGRSPQLLIDLASERASGVPDRFSGSGSRKDFTLKIDRVEAEDVGTYYCMQGRESPWTFGQGTKVDIK",0.001,0.004,0.217,0.003,0.296,1.18,0.018,0.072,0.021,0.086,0.003,0.011,0.166,0.664,0.004,0.017,> 100,> 100,0.018,0.071,IC50 (µg/ml) with constrains [12]: 1.06 µg/mL; IC50 (µg/ml) with constrains [13]: 0.076 µg/mL; IC50 (µg/ml) with constrains [14]: 0.893 µg/mL; IC50 (µg/ml) with constrains [15]: 0.004 µg/mL; IC50 (µg/ml) with constrains [16]: 0.002 µg/mL; IC50 (µg/ml) with constrains [17]: 0.004 µg/mL; IC50 (µg/ml) with constrains [18]: 0.057 µg/mL; IC50 (µg/ml) with constrains [19]: 0.016 µg/mL; IC50 (µg/ml) with constrains [20]: 1.49 µg/mL; IC50 (µg/ml) with constrains [21]: > 100 µg/mL; IC80 (µg/ml) with constrains [21]: > 100 µg/mL; IC50 (µg/ml) with constrains [22]: 0.003 µg/mL; IC50 (µg/ml) with constrains [23]: > 100 µg/mL

# — US20230134571A1 (INTERNATIONAL AIDS VACCINE INITIATIVE, published 2023)
